# From US20200121803A1 (published 2020)
# Molecular target: T1, human CD98, endogenously expressed on Molt-4 human acute lymphoblastic leukemia cells (human)
# T1 chain: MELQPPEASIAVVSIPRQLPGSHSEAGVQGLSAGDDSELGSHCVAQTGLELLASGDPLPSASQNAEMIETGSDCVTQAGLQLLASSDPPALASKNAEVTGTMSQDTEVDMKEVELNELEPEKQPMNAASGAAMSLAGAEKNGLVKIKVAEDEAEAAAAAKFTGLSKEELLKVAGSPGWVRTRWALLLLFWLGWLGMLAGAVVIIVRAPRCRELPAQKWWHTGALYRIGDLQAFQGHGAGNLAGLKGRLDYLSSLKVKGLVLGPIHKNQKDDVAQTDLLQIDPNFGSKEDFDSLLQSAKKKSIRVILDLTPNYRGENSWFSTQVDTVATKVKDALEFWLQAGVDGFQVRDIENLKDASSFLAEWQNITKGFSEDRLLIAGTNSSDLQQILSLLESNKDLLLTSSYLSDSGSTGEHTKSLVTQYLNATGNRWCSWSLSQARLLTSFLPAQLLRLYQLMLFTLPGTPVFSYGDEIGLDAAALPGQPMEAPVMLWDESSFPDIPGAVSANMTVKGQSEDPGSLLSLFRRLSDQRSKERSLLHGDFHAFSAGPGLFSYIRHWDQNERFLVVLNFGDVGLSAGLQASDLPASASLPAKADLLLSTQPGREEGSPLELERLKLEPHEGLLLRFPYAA
# Test: cell-based or functional assay
Molt4 IC50,Binder,% Cell Viability at 50 nM
0.144 nM,"CD98 (CL-huAb108)-ZT (antibody, human IgG1, kappa, L234A L235A, V domains shown, synthon ZT on reduced interchain cysteines (sites not given)) VH: EVQLVQSGAEVKKPGASVKVSCKASGFTFSDYTMAWVRQAPGQGLEWVATIIYSGRGTYYRDAVKGRFTITRDNSTSTLYLELSSLRSEDTAVYYCARQSDDTYYYWGYFDYWGQGTMVTVSS VL: DIVMTQTPLSLPVTPGEPASINCKSSQSLLFSGNQKNYLAWYLQKPGQSPQLLIYWASTRQSGVPDRFSGSGSGTDFTLKISRVEAEDVGIYYCQQYYDVPYTFGQGTKLEIKR",4.5%
0.061 nM,"CD98 (CL-huAb104)-ZZ (antibody, human IgG1, kappa, L234A L235A, V domains shown, synthon ZZ on reduced interchain cysteines (sites not given)) VH: EVQLVESGGGLVQPGGSLRLSCATSGFTFIDYYMSWVRQAPGKGLEWLGFIRNKAYGYTTEYSASVKGRFTISRDNSKSILYLQMNSLKTEDTAVYYCTRDRPAWFVYWGQGTLVTVSS VL: DIVMTQTPLSLPVTPGEPASISCKSSQSLLYSSNQKNYLAWYLQKPGQSPQLLIYWASTRESGVPDRFSGSGSGTDFTLKISRVEAEDVGVYYCQQYYSYPYTFGGGTKVEIKR",6.5%
0.199 nM,"CD98 (CL-huAb108-ZZ (antibody, human IgG1, kappa, L234A L235A, V domains shown, synthon ZZ on reduced interchain cysteines (sites not given)) VH: EVQLVQSGAEVKKPGASVKVSCKASGFTFSDYTMAWVRQAPGQGLEWVATIIYSGRGTYYRDAVKGRFTITRDNSTSTLYLELSSLRSEDTAVYYCARQSDDTYYYWGYFDYWGQGTMVTVSS VL: DIVMTQTPLSLPVTPGEPASINCKSSQSLLFSGNQKNYLAWYLQKPGQSPQLLIYWASTRQSGVPDRFSGSGSGTDFTLKISRVEAEDVGIYYCQQYYDVPYTFGQGTKLEIKR",5.8%
0.068 nM,"CD98 (CL-huAb108)-CZ (antibody, human IgG1, kappa, L234A L235A, V domains shown, synthon CZ on reduced interchain cysteines (sites not given)) VH: EVQLVQSGAEVKKPGASVKVSCKASGFTFSDYTMAWVRQAPGQGLEWVATIIYSGRGTYYRDAVKGRFTITRDNSTSTLYLELSSLRSEDTAVYYCARQSDDTYYYWGYFDYWGQGTMVTVSS VL: DIVMTQTPLSLPVTPGEPASINCKSSQSLLFSGNQKNYLAWYLQKPGQSPQLLIYWASTRQSGVPDRFSGSGSGTDFTLKISRVEAEDVGIYYCQQYYDVPYTFGQGTKLEIKR",1.1%
0.023 nM,"CD98 (CL-huAb104)-CZ (antibody, human IgG1, kappa, L234A L235A, V domains shown, synthon CZ on reduced interchain cysteines (sites not given)) VH: EVQLVESGGGLVQPGGSLRLSCATSGFTFIDYYMSWVRQAPGKGLEWLGFIRNKAYGYTTEYSASVKGRFTISRDNSKSILYLQMNSLKTEDTAVYYCTRDRPAWFVYWGQGTLVTVSS VL: DIVMTQTPLSLPVTPGEPASISCKSSQSLLYSSNQKNYLAWYLQKPGQSPQLLIYWASTRESGVPDRFSGSGSGTDFTLKISRVEAEDVGVYYCQQYYSYPYTFGGGTKVEIKR",0.9%
0.015 nM,"CD98 (CL-huAb102)-CZ (antibody, human IgG1, kappa, L234A L235A, V domains shown, synthon CZ on reduced interchain cysteines (sites not given)) VH: EVQLVESGGGLVQPGGSLRLSCATSGFTFIDYYMSWVRQAPGKGLEWLGFIRNKANRYTTEYSASVKGRFTISRDNSKSILYLQMNSLKTEDTAVYYCTRDRPAWFVYWGQGTLVTVSS VL: DIVMTQTPLSLPVTPGEPASISCKSSQSLLYSSNQKNYLAWYLQKPGQSPQLLIYWASTRESGVPDRFSGSGSGTDFTLKISRVEAEDVGVYYCQQYYSYPYTFGGGTKVEIKR",1%
0.156 nM,"CD98 (CL-huAb110)-ZT (antibody, human IgG1, kappa, L234A L235A, V domains shown, synthon ZT on reduced interchain cysteines (sites not given)) VH: EVQLVQSGAEVKKPGASVKVSCKASGFTFSDYTMAWVRQAPGQGLEWVATIIYDARGTYYRDAVKGRFTITRDNSTSTLYLELSSLRSEDTAVYYCARQSDDTYYYWGYFDYWGQGTMVTVSS VL: DIVMTQTPLSLPVTPGEPASINCKSSQSLLFSGNQKNYLAWYLQKPGQSPQLLIYWASTRQSGVPDRFSGSGSGTDFTLKISRVEAEDVGIYYCQQYYSSPYTFGQGTKLEIKR",3.5%
0.072 nM,"CD98 (CL-huAb102)-ZZ (antibody, human IgG1, kappa, L234A L235A, V domains shown, synthon ZZ on reduced interchain cysteines (sites not given)) VH: EVQLVESGGGLVQPGGSLRLSCATSGFTFIDYYMSWVRQAPGKGLEWLGFIRNKANRYTTEYSASVKGRFTISRDNSKSILYLQMNSLKTEDTAVYYCTRDRPAWFVYWGQGTLVTVSS VL: DIVMTQTPLSLPVTPGEPASISCKSSQSLLYSSNQKNYLAWYLQKPGQSPQLLIYWASTRESGVPDRFSGSGSGTDFTLKISRVEAEDVGVYYCQQYYSYPYTFGGGTKVEIKR",6.3%

# Molecular target: T2, Human CD98, endogenous on HCC38, Molt-4 and Jurkat human cancer cells (human)
# T2 chain: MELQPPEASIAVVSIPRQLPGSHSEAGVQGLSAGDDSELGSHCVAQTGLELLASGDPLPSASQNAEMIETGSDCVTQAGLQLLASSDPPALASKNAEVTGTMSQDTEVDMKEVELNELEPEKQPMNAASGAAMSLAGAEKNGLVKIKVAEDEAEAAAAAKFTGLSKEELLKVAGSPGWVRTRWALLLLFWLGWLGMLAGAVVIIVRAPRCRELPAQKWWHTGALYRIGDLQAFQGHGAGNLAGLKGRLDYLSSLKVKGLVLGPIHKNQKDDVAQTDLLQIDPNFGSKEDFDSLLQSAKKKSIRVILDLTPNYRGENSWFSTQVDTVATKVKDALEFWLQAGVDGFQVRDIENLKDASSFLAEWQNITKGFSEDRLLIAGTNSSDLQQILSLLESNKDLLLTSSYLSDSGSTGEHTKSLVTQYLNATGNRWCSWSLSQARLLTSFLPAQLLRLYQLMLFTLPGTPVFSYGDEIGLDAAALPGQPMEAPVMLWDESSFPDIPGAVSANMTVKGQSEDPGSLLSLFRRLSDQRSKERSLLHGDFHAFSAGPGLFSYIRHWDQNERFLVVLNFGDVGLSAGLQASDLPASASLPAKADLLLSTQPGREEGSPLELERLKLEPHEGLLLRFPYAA
# Test: cell-based or functional assay
"ADC potency, IC50 (nM), HCC38 growth inhibition","ADC potency, IC50 (nM), Jurkat growth inhibition","ADC potency, IC50 (nM), Molt-4 growth inhibition",Binder
0.438 nM,0.086 nM,0.057 nM,"Ab6-CZ (Ab6 conjugated to Bcl-xL inhibitor synthon CZ) (antibody, V domains shown) VH: QVQLKESGPGLAQPSQTLSLTCTVSGFSLSTYGVIWLRQPPGKGLEWMGVIWTNGNTNYNSTLKSRLSISRDTSESQVYLQMNSLQTEDTATYYCARHYYDGAYYYGYFDYWGQGVMVTVSS VL: DIVMTQTPSSQAVSAGEKVTMSCKSSQSLLYSENKKNYLAWYQQKPGQSPKLLIYWASTRESGVPDRFIGSGSGTDFTLTISSVQAEDLAVYYCQQYYYFPYTFGAGTKLELK"
1.15 nM,0.134 nM,0.079 nM,"Ab7-CZ (Ab7 conjugated to Bcl-xL inhibitor synthon CZ) (antibody, V domains shown) VH: QVQLKESGPGLVQPSQTLSLTCTVSGFSLSTYGVIWVRQPPGKGLEWMGVIWANGNTNYNSTLKSRLSISRDTSKSQVYLKMNSLQTEDTATYYCARHYYDGTYYYGYFDYWGQGVMVTVSS VL: DIVMTQTPSSQAVSAGEKVTMNCKSSQSLLYSENKKNYLAWYQQKPGQSPKLLIYWASTRESGVPDRFIGSGSGTDFTLTISSVQAEDLAVYYCQQYYYFPYTFGPGTKLELK"
1.09 nM,0.092 nM,0.03 nM,"Ab9-CZ (Ab9 conjugated to Bcl-xL inhibitor synthon CZ) (antibody, V domains shown) VH: QVQLKESGPGLVQPSQTLSLTCAVSGFSLSNYGVIWVRQPPGKGLEWMAVIWTNGNTNYNSTLKSRLSISRDTSKSQVYLKMNSLQTEDTATYYCARHYYDGTYYYGYFDYWGQGVMVTVSS VL: DIVMTQTPSSQAVSAGEKVTMSCKSSQSLLYTENKKNYLAWYQQKPGQSPKLLIYWASTRESGVPDRFMGSGSGTDFTLTISSVQAEDLAVYYCQQYYYFPYMFGAGTKLELK"
0.998 nM,0.05 nM,0.053 nM,"Ab1-CZ (Ab1 conjugated to Bcl-xL inhibitor synthon CZ) (antibody, V domains shown) VH: EVKLVESGGGLVQPGGSLRLSCATSGFTFTDYYMSWVRQPPGKALEWLGFIRNPANVYTTEYSASVKGRFTISRDNSQSILYLQMNTLRAEDSATYYCARASYGNSEGWFAYWGQGTLVTVSA VL: DIVMSQSPSSLAVSVGEKVTMSCKSSQNLLYNNNQKNYLAWYQQKPGQSPKLLIYWASTRESGVPDRFTGSGSGTDFTLTISSVKAEDLAVYYCQQYYSYPRTFGGGTKLEIK"
0.879 nM,0.371 nM,0.127 nM,"Ab4-CZ (Ab4 conjugated to Bcl-xL inhibitor synthon CZ) (antibody, V domains shown) VH: EVKLVESGGGLVQPGGSLRLSCTTSGFTFTDYYMSWVRQPPGKALEWLGFIRNKATIYTTEYSASVKGRFTISRDNSQSILYLQMNTLRAEDSATYYCARASYGNSEGWFAYWGQGTLVTVSA VL: not shown"
0.728 nM,0.137 nM,0.022 nM,"Ab5-CZ (Ab5 conjugated to Bcl-xL inhibitor synthon CZ) (antibody, V domains shown) VH: EVKLVESGGGLVQPGGSLRLSCATSGFTFTDYYMTWVRQPPGKALEWLGFIRNKANGYTTEYSASVKGRFTISRDNSLSILYLQMNTLRAEDSATYYCARASYVNSEGWFAYWGQGTLVTVSA VL: DIVMSQSPSSLAVSVGEKVTMSCKSSQSLLYSSNQKNYLAWYQQKLGQSPKLLIYWASTRESGVPDRFTGSGSGTDFTLTISSVKAEDLAVYYCQHYYSYPRTFGGGTKLEIK"
0.963 nM,0.121 nM,0.079 nM,"Ab8-CZ (Ab8 conjugated to Bcl-xL inhibitor synthon CZ) (antibody, V domains shown) VH: EVQLVESGGGLVQPGRSLKLSCAASGFTFSDYAMAWVRQAPKKGLEWVASIIYDGRGTYYRDSVKGRFTISRDNAKSTLYLQMDSLRSEDTATYYCARQGDGTYYYWGYFDYWGQGVMVTVSS VL: DIVMTQSPSSLAVSAGETVTINCKSSQSLLSSGNQKNYLAWYQQKPGQSPKLLIYWASTRQSGVPDRFIGSGSGTDFTLTINSVQAEDLAIYYCQQYYDTPYTFGAGTKLELK"
1.14 nM,0.311 nM,0.279 nM,"Ab11-CZ (Ab11 conjugated to Bcl-xL inhibitor synthon CZ) (antibody, V domains shown) VH: EVQLVESGGGLVQPGRSLKLSCAASGFTFSDYAMAWVRQAPKKGLEWVAGIIYDGRGTYYRDSVKGRFTISRDNAKSTLYLQMDSLRSEDTATYYCARQGDGTYYYWGYFDYWGQGVMVTVSS VL: DIVMTQSPSSLAVSAGETVTINCRSSQSLLSSGNQKNYLAWYQQKPGQSPKLLIYWASTRQSGVPDRFIGSGSGTDFTLTISSVQAEDLAIYYCQQYYDTPYTFGAGTKLELK"
1.16 nM,0.148 nM,0.047 nM,"Ab10-CZ (Ab10 conjugated to Bcl-xL inhibitor synthon CZ) (antibody, V domains shown) VH: EVQLVESGGGLVQPGRSLKLSCAASGFTFSDYAMAWVRQAPKKSLEWVATIIYDGRGTYCRDSVKGRFTISRDNAKSTLYLQMDSLRSEDTATYYCARQGDGTYHYWGYFDYWGQGVMVTVSS VL: DIVMTQSPSSLAVSAGETVTINCKSSQSLLSSGNQKNYLAWYQQKPGQSPKLLIYWASTRQSGVPDRFIGSGSGTDFTLTISSVQAEDLAIYYCQQYYDTPYTFGAGTKVDLK"
